# Data taken from patent US20230036655A1 (OTSUKA PHARMACEUTICAL, published 2023).
# T1: human GDF15 (hGDF15), mature, wild-type (human, UniProt Q99988 197-308)
# T1 construct: Bought recombinant protein: R&D Systems 957-GD-025/CF in most assays, 9279-GD in the crystal and the GDF15/GFRAL/RET assay; It was biotinylated in the GFRAL assay; also called hGDF15 (WT); rhGDF15
# T1 sequence: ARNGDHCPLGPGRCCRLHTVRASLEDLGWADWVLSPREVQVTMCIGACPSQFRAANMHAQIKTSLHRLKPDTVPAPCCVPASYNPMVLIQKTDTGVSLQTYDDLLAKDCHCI
# T2: mutant hGDF15 R13A, R16A (human, UniProt Q99988 197-308)
# T2 construct: Expressed in ExpiCHO-S cells and used as culture supernatant in the ELISA
# T2 chain: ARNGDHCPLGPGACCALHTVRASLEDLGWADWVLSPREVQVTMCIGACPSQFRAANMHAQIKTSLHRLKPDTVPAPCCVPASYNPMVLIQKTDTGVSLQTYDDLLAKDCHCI
# T3: mutant hGDF15 R13A (human, UniProt Q99988 197-308)
# T3 construct: Expressed in ExpiCHO-S cells and used as culture supernatant in the ELISA
# T3 chain: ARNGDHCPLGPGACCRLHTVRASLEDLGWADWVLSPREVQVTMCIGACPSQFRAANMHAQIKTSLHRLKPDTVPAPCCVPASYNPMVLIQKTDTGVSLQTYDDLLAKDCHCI
# T4: mutant hGDF15 R16A (human, UniProt Q99988 197-308)
# T4 construct: Expressed in ExpiCHO-S cells and used as culture supernatant in the ELISA
# T4 chain: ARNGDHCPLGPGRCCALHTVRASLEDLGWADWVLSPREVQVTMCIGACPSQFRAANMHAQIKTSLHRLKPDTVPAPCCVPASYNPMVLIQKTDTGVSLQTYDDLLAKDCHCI
# T5: mutant hGDF15 H6A (human, UniProt Q99988 197-308)
# T5 construct: Expressed in ExpiCHO-S cells and used as culture supernatant in the ELISA
# T5 chain: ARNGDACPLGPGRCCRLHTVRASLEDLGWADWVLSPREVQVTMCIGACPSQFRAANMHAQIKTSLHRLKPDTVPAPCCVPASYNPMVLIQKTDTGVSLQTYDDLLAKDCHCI
# T6: mutant hGDF15 3A (human, UniProt Q99988 197-308)
# T6 construct: Expressed in ExpiCHO-S cells and used as culture supernatant
# T6 chain: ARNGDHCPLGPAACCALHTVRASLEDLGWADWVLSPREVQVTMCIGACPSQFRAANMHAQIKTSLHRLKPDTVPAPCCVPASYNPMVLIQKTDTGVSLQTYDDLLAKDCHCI
# T7: mutant hGDF15 6A (human, UniProt Q99988 197-308)
# T7 construct: Expressed in ExpiCHO-S cells and used as culture supernatant
# T7 chain: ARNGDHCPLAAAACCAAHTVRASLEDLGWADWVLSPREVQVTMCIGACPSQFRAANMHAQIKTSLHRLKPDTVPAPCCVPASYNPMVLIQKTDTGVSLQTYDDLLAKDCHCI
# T8: mutant hGDF15 T72A (human, UniProt Q99988 197-308)
# T8 construct: Expressed in ExpiCHO-S cells and used as culture supernatant in the ELISA
# T8 chain: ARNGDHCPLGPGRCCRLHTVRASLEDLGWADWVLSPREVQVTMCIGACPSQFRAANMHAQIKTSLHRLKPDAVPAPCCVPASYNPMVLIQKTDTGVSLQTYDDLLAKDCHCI
# T9: mutant hGDF15 8A (human, UniProt Q99988 197-308)
# T9 construct: Expressed in ExpiCHO-S cells and used as culture supernatant
# T9 chain: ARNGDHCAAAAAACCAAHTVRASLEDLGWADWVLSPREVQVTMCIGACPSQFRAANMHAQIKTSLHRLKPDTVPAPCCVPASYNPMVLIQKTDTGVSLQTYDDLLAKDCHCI
# T10: mutant hGDF15 4A (human, UniProt Q99988 197-308)
# T10 construct: Expressed in ExpiCHO-S cells and used as culture supernatant
# T10 chain: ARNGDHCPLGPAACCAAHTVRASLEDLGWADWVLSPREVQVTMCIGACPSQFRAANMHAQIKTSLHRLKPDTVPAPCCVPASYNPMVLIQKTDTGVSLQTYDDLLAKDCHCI
# What was measured:
# [1] = biological target: T1, human GDF15 (hGDF15), mature, wild-type; test: competition ELISA: GFRAL immobilised, biotinylated GDF15 plus serially diluted antibody; inhibition of GDF15-GFRAL complex formation (negative control)
# [2] = biological target: T1, human GDF15 (hGDF15), mature, wild-type; test: ELISA, hGDF15 immobilised
# [3] = biological target: T1, human GDF15 (hGDF15), mature, wild-type; test: competition (sandwich) ELISA: clone immobilised, hGDF15 captured; competitor: biotinylated HuMAB2
# Procedure: HuMAB2 and the anti-GDF15 monoclonal antibodies shown in Table 5 (2 μg/mL) were added to 96-well plates at 100 μL/well to be immobilized on the plates, and reacted with 100 μL/well of hGDF15 (R&D Systems, 957-GD-025/CF) serially diluted from a concentration of 1 ng/ml. HuMAB2 biotinylated using EZ-Link Micro NHS-PEG4-Bitinylation Kit (Thermo Fisher Scientific, 21955) was used as the detection antibody (1 μg/mL as 100 μL/well). Whether or not sandwich ELISA was established was determined using Streptavidin-HRP conjugate in Human GDF15 ELISA Kit (R&D Systems, DY957). The detection antibody in Human GDF15 ELISA Kit (R&D Systems, DY957) (Table 5), which can establish sandwich ELISA with any monoclonal antibody, was used as a positive control antibody (PC) for sandwich ELISA.
# Then, other antibodies obtained this time were tested to see whether each of these antibodies competes with HuMAB2 by the same method as described above.
# [4] = biological target: T1, human GDF15 (hGDF15), mature, wild-type; test: competition ELISA: GFRAL immobilised, biotinylated GDF15 plus serially diluted antibody; inhibition of GDF15-GFRAL complex formation
# Excerpt: First, the effect on GDF15 and GFRAL complex formation was examined (FIG. 12). GFRAL (R&D systems, 9697-GR) was immobilized on a plate, and GDF15 (R&D systems, 957-GD/CF) biotinylated with EZ-Link Micro NHS-PEG4-Bitinylation Kit (Thermo Fisher Scientific, 21955) and a serially diluted solution of an anti-GDF15 monoclonal antibody (Table 26) were reacted with the plate. Human IgG1, kappa-Isotype Control (Abcam) was used as a negative control antibody. GDF15 bound to GFRAL was detected using Pierce High Sensitivity Streptavidin-HRP (Thermo Fisher Scientific, 21130). TMB 1-Component Microwell Peroxidase Substrate, SureBlue (SeraCare Life Sciences) was used for color development, and the reaction was stopped by adding a stop solution (Wako). Absorbance was measured at 450 nm (OD450) using Emax (Molecular Devices). The % of control value was calculated according to Equation-1 from the OD450 value when each antibody was added, with the OD450 value when no antibody was added as a control. The IC50 value was obtained by calculating the inhibition rate from the % of control value thus obtained according to Equation-2 and using an Excel macro for IC50 calculation.
# [5] = biological target: T2, mutant hGDF15 R13A, R16A; test: sandwich ELISA: antibody immobilised, WT or mutant hGDF15, goat polyclonal detection; N=3, mean ± SD
# [6] = biological target: T3, mutant hGDF15 R13A; test: as above
# [7] = biological target: T4, mutant hGDF15 R16A; test: as above
# [8] = biological target: T5, mutant hGDF15 H6A; test: as above
# [9] = biological target: T6, mutant hGDF15 3A; test: as above
# [10] = biological target: T7, mutant hGDF15 6A; test: as above
# [11] = biological target: T8, mutant hGDF15 T72A; test: as above
# [12] = biological target: T9, mutant hGDF15 8A; test: as above
# [13] = biological target: T10, mutant hGDF15 4A; test: as above
molecule,measurement,setting,value
Human IgG1 Isotype control (antibody),IC50,[1],> 500 nM
"H49R-L7 (antibody, human IgG1, kappa, V domains shown, In the label, H means the H chain; also called HuMAB2 variant H49R) VH: QVQLQESGPGLVKPSETLSLTCTVSGFSINRDCYWIWIRQPPGKGLEYIGYTFYSGITYYNPSLASRTTISRDTSKNQFSLKLSSVTAADTAVYYCARDCDYAMDYWGQGTLVTVSS VL: DIQMTQSPSSLSASVGDRVTITCRASQDISNYLNWYQQKPGKAVKLLIHYTSTLHSGVPSRFSGSGSGTDYTLTISSLQPEDFATYFCQQGNTLPWTFGQGTKLEIKR",binding result,[2],binds
"H71Y-L7 (antibody, human IgG1, kappa, V domains shown, In the label, H means the H chain; also called HuMAB2 variant H71Y) VH: QVQLQESGPGLVKPSETLSLTCTVSGFSINSDCYWIWIRQPPGKGLEYIGYTYYSGITYYNPSLASRTTISRDTSKNQFSLKLSSVTAADTAVYYCARDCDYAMDYWGQGTLVTVSS VL: DIQMTQSPSSLSASVGDRVTITCRASQDISNYLNWYQQKPGKAVKLLIHYTSTLHSGVPSRFSGSGSGTDYTLTISSLQPEDFATYFCQQGNTLPWTFGQGTKLEIKR",binding result,[2],binds
"MAB1 (antibody, V domains shown, Mouse monoclonal antibody from hybridoma; also called clone MAB1) VH: EVQLQQSGPELEKPGASVKISCKASGYSFTGYNMNWVKQSNGKSLEWIGNIDPYYGGTSYNQKFKGKATLTVDKSSSTAYMQLKSLTSEDSAVYYCARPGRYDGAWFAYWGQGTLVTVSA VL: QIVLSQSPAILSASPGEKVTMTCRASSNVNYMHWYQQKPGSSPKPWIYATSNLASGVPARFSGSGSGTSYSLTISRVEAEDAATYYCQQWSDNPLTFGAGTKLELK",Inhibition %,[3],82%
"Hu01G06-127 (antibody, V domains shown) VH: QVQLVQSGAEVKKPGASVKVSCKASGYTFTDYNMDWVRQAPGQSLEWMGQINPNNGLIFFNQKFQGRVTLTTDTSTSTAYMELRSLRSDDTAVYYCAREAITTVGAMDYWGQGTLVTVSS VL: DIQMTQSPSSLSASVGDRVTITCRTSENLHNYLAWYQQKPGKSPKLLIYDAKTLADGVPSRFSGSGSGTDYTLTISSLQPEDFATYYCQHFWSDPYTFGQGTKLEIKR",IC50,[4],0.05 nM
same,relative binding (amount bound to 500 pg/mL hGDF15 = 100),[5],87.6 relative value (WT hGDF15 = 100)
same,relative binding (amount bound to 500 pg/mL hGDF15 = 100),[6],91.4 relative value (WT hGDF15 = 100)
same,relative binding (amount bound to 500 pg/mL hGDF15 = 100),[7],102 relative value (WT hGDF15 = 100)
same,relative binding (amount bound to 500 pg/mL hGDF15 = 100),[8],90.5 relative value (WT hGDF15 = 100)
same,relative binding (amount bound to 500 pg/mL hGDF15 = 100),[9],96.2 relative value (WT hGDF15 = 100)
same,relative binding (amount bound to 500 pg/mL hGDF15 = 100),[10],61.6 relative value (WT hGDF15 = 100)
same,relative binding (amount bound to 500 pg/mL hGDF15 = 100),[11],108 relative value (WT hGDF15 = 100)
same,relative binding (amount bound to 500 pg/mL hGDF15 = 100),[12],57.1 relative value (WT hGDF15 = 100)
same,relative binding (amount bound to 500 pg/mL hGDF15 = 100),[13],83.5 relative value (WT hGDF15 = 100)
"MAB17 (antibody, V domains shown, Mouse monoclonal antibody from hybridoma; also called clone MAB17) VH: QVTLKESGPGILQPSQTLSLTCSFSGFSLNTHGMGVGWIRQPSGKGLEWLANIWWNDDKYYNSALKSRLTLSKDTSNNQVFLKISSVDTADTATYFCAQVAWDWFAYWGQGTLVTIS VL: QIVLTQSPAIMSASLGEEITLTCSASSSVRYMHWYQQKSGTSPKVLIYSTSNLASGVPSRFSGSGSGTFYSLTISSVEAEDAADYYCHQWSSYPWTFGGGTKLEIKR",Inhibition %,[3],0%
same,IC50,[4],12 nM
same,relative binding (amount bound to 500 pg/mL hGDF15 = 100),[5],83 relative value (WT hGDF15 = 100)
same,relative binding (amount bound to 500 pg/mL hGDF15 = 100),[6],97.2 relative value (WT hGDF15 = 100)
same,relative binding (amount bound to 500 pg/mL hGDF15 = 100),[7],101 relative value (WT hGDF15 = 100)
same,relative binding (amount bound to 500 pg/mL hGDF15 = 100),[8],87.7 relative value (WT hGDF15 = 100)
same,relative binding (amount bound to 500 pg/mL hGDF15 = 100),[9],110 relative value (WT hGDF15 = 100)
same,relative binding (amount bound to 500 pg/mL hGDF15 = 100),[10],83.9 relative value (WT hGDF15 = 100)
same,relative binding (amount bound to 500 pg/mL hGDF15 = 100),[11],104 relative value (WT hGDF15 = 100)
same,relative binding (amount bound to 500 pg/mL hGDF15 = 100),[12],78.8 relative value (WT hGDF15 = 100)
same,relative binding (amount bound to 500 pg/mL hGDF15 = 100),[13],95 relative value (WT hGDF15 = 100)
"MAB13 (antibody, V domains shown, Mouse monoclonal antibody from hybridoma; also called clone MAB13) VH: EIQLQQTGPELVKPGASVKISCKASGYSFTDYIMLWVKQRHGKSLEWIGNIHPYYGTTSYNLKFKGKATLTVDKSSSTAYMQLNSLTSEDSAVYYCARGIGGSPFAYWGQGTLVTVSA VL: DVLMTQTPLSLPVSLGDQASISCRSSQSIVHSNGNTYLEWYLQKPGQSPKLLIYKVSNRFSGVPDRFTGTGSGTDFTLKISRVEAEDLGVYYCFQGSHVPYTFGGGTKLEIK",Inhibition %,[3],79%
